B1: Protein kinase C epsilon type (Homo sapiens), Q02156 (parent)
chain: MVVFNGLLKIKICEAVSLKPTAWSLRHAVGPRPQTFLLDPYIALNVDDSRIGQTATKQKTNSPAWHDEFVTDVCNGRKIELAVFHDAPIGYDDFVANCTIQFEELLQNGSRHFEDWIDLEPEGRVYVIIDLSGSSGEAPKDNEERVFRERMRPRKRQGAVRRRVHQVNGHKFMATYLRQPTYCSHCRDFIWGVIGKQGYQCQVCTCVVHKRCHELIITKCAGLKKQETPDQVGSQRFSVNMPHKFGIHNYKVPTFCDHCGSLLWGLLRQGLQCKVCKMNVHRRCETNVAPNCGVDARGIAKVLADLGVTPDKITNSGQRRKKLIAGAESPQPASGSSPSEEDRSKSAPTSPCDQEIKELENNIRKALSFDNRGEEHRAASSPDGQLMSPGENGEVRQGQAKRLGLDEFNFIKVLGKGSFGKVMLAELKGKDEVYAVKVLKKDVILQDDDVDCTMTEKRILALARKHPYLTQLYCCFQTKDRLFFVMEYVNGGDLMFQIQRSRKFDEPRSRFYAAEVTSALMFLHQHGVIYRDLKLDNILLDAEGHCKLADFGMCKEGILNGVTTTTFCGTPDYIAPEILQELEYGPSVDWWALGVLMYEMMAGQPPFEADNEDDLFESILHDDVLYPVWLSKEAVSILKAFMTKNPHKRLGCVASQNGEDAIKQHPFFKEIDWVLLEQKKIKPPFKPRIKTKRDVNNFDQDFTREEPVLTLVDEAIVKQINQEEFKGFSYFGEDLMP
partner: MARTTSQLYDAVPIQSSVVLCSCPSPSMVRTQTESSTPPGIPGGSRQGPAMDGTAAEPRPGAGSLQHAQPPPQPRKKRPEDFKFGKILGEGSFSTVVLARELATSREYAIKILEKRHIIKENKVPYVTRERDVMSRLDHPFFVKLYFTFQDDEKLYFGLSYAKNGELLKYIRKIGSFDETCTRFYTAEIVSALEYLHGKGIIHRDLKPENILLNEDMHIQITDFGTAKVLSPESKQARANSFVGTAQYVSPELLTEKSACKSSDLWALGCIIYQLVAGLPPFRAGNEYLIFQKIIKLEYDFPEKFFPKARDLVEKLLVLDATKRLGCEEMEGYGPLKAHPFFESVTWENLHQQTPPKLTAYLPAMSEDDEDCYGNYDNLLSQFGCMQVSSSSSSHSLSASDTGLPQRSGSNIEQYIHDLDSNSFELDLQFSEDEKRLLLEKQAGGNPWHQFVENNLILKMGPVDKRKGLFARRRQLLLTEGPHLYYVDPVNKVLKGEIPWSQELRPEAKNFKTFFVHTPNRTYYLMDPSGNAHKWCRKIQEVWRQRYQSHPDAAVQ
B2: Protein kinase C epsilon type (Homo sapiens), Q02156 (parent)
chain: B1 chain

Variants of: B1
Settings: with pdpk1_human PDPK1, O15530

effect of a mutation on the interaction | Variant
with no effect | E599K

Variants of: B2
Settings: with sin1_human MAPKAP1, Q9BPZ7
sin1_human MAPKAP1, Q9BPZ7, sequence (Q9BPZ7 whole entry): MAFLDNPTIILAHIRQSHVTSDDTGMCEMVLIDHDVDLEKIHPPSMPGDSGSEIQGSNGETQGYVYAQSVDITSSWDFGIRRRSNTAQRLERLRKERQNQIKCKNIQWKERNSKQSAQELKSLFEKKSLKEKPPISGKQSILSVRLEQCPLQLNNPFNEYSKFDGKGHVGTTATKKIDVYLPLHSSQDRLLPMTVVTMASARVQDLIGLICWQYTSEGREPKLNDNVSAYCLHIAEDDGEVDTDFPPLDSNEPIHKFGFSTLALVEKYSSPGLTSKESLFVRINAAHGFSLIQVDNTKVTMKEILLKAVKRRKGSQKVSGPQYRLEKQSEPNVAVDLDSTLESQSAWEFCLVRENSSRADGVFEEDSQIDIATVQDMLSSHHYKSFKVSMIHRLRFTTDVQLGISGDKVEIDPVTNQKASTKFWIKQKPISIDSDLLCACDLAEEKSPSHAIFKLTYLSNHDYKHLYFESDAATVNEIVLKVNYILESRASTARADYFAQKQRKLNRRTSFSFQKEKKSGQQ

effect of a mutation on the interaction | Variant
increasing interaction strength | E599K

Source: IntAct's records for PubMed 28934384
